This note sets out measurements from PMC3950512.

Common to all, as to assay: purified protein
What all share (settings): 25°C, 50 mM Tris-HCl pH 8.0, 10 mM MgCl2

Series [1] concerns C[N+]1(C)CCC[C@@H]1C(=O)[O-].
In series [2] the test system is C[N+]1(C)CCC[C@@H]1C(=O)[O-]. The series is classed as biochemical, Cereibacter sphaeroides.
For series [3], the system named is C[N+]1(C)C[C@H](O)C[C@H]1C(=O)[O-].

Take “pdHpbD (Paracoccus denitrificans PD1222)”: in series [1], the Km is recorded as 7.3 ± 3 mM, the catalytic constant (kcat) is 28 ± 6 s⁻¹ and the kcat/Km is 3800 M⁻¹ s⁻¹.
As for rsHpbD (Cereibacter sphaeroides 2.4.1), in series [2], the Km stood at 11 ± 4 mM, the kcat came out at 4.3 ± 0.6 s⁻¹ and the catalytic efficiency (kcat/Km) came to 390 M⁻¹ s⁻¹. Also, in series [3], the Km is reported as 16 ± 7 mM, the kcat was 70 ± 7 s⁻¹ and the kcat/Km is 4300 M⁻¹ s⁻¹.
